Source: US7205275 (dated 2007)
Primed or numbered codes have the meaning given here. Where no end group is shown, it is not given here. [ ]: non-standard residue; d: D form. Fc(3) = Fc: non-antigen-binding fragment of an antibody from proteolytic digestion of a whole antibody (vehicle); Fc(4) = non-antigen-binding fragment of an antibody (from proteolytic digestion of a whole antibody); Fc = immunoglobulin Fc domain fused to the peptide (peptibody); Fc″ = Fc domain of the peptibody fusion

T1: human Ang-2 (human, UniProt O15123)
T1 chain: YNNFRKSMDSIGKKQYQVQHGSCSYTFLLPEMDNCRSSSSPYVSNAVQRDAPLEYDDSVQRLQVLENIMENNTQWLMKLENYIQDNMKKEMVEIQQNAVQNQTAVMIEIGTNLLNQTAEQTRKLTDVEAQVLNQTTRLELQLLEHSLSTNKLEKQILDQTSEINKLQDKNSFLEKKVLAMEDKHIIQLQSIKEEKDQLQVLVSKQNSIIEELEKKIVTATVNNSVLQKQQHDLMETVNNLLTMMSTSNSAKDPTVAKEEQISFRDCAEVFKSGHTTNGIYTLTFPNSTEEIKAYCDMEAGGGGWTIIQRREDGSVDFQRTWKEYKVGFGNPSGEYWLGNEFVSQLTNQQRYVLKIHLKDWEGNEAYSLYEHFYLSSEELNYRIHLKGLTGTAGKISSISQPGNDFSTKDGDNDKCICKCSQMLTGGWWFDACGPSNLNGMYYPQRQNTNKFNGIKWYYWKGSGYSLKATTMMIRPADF

T2: mouse Ang-2 (mouse, UniProt O35608)
T2 chain: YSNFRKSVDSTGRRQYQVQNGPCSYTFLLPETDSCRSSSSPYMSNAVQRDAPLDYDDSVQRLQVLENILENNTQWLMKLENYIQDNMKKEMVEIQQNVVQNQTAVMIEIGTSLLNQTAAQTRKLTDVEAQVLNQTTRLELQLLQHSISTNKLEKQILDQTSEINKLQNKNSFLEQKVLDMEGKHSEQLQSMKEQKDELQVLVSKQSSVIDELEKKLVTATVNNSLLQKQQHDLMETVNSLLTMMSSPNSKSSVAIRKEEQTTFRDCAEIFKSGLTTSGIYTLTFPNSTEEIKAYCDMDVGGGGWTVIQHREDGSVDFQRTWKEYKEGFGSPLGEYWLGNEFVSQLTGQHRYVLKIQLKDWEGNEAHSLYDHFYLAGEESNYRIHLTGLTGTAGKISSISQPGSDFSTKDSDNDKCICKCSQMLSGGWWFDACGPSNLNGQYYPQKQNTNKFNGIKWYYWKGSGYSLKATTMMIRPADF

T3: cAng-2 (UniProt O15123)
T3 chain: T1 chain

T4: mouse Ang-1 (mouse, UniProt O08538)
T4 chain: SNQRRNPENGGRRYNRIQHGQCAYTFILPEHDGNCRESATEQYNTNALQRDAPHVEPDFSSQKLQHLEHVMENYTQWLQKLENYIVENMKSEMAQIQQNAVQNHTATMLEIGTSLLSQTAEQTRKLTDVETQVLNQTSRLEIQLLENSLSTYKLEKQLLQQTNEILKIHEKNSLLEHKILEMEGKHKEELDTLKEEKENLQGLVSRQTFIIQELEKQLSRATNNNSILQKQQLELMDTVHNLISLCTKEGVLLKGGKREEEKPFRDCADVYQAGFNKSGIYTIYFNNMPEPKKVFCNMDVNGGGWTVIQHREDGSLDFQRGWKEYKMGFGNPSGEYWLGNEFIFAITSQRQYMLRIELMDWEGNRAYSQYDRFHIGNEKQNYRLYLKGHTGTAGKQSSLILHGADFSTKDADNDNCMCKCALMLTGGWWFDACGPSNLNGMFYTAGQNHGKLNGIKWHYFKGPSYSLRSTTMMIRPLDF

T5: human Ang-1 (human, UniProt Q15389)
T5 chain: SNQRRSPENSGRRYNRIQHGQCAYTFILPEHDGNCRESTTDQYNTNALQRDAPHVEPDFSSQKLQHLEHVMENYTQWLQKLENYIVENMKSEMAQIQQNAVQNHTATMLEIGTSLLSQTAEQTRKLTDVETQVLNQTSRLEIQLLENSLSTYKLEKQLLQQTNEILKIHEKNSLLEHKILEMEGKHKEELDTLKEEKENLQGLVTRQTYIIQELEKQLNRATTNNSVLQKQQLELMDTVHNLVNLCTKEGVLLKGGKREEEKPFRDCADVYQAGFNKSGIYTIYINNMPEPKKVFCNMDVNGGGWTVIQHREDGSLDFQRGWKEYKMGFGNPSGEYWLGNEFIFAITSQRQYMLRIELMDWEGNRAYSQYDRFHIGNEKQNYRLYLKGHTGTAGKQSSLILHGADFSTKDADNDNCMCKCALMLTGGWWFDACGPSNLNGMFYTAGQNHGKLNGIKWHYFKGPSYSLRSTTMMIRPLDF

T6: rat Ang-2 (rAng-2) (rat, UniProt O35462)
T6 chain: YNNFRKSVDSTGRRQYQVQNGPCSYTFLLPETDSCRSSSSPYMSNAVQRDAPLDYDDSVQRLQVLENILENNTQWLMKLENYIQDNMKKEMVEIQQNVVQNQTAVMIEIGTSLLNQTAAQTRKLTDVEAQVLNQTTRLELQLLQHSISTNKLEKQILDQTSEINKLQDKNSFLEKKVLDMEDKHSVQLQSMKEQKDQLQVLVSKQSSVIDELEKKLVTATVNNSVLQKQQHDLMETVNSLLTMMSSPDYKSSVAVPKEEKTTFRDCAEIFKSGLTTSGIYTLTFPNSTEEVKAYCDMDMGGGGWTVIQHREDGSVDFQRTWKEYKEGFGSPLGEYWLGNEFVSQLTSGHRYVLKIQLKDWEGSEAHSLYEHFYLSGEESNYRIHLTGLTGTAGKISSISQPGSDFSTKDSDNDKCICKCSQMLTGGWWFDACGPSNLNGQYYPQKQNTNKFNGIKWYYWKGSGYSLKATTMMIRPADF

B1: L1-21 (N) (peptide)
chain: MGAQHTFQPLDELEETLYYQWLYDQLLEGGGGG-{Fc″}
B2: Con4 (C) (peptide)
chain: M[Fc]GGGGGAQQEECEWDPWTCEHMLE
modifications: not fully specified (bridges); printed as M-Fc-GGGGGAQQEECEWDPWTCEHMLE; cysteine pairing not given here; also: Fc fusion domain at position 2
B3: L1-10 (N) (peptide)
chain: MGAQQKFQPLDELEQTLYEQFMLQQALEGGGGG[Fc(3)]
B4: Con4-44 (C) (peptide)
chain: M[Fc(4)]GGGGGAQPIRQEECDWDPWTCEHMWEVLE
modifications: not fully specified; cysteine pairing not given here
B5: L1-7 (N) (peptide)
chain: MGAQTNFMPMDDLEQRLYEQFILQQGLEGGGGG-Fc
B6: TN12-9 (N) (peptide)
chain: MGAQFDYCEGVEDPFTFGCDNHLEGGGGGX
modifications: not fully specified (C-terminus, bridges); printed as MGAQ-FDYCEGVEDPFTFGCDNHLE-GGGGG-Fc; cysteine pairing not given here
B7: L1 (N) (peptide)
chain: MGAQKFNPLDELEETLYEQFTFQQLEGGGGG[Fc(3)]

Target: T1, human Ang-2
Experiment: SPR

Row | Kd [nM] | Binder
1 | 0.24 | B1
2 | 0.38 | B2
3 | 0.77 | B3
4 | 0.21 | B4
5 | 0.24 | B5

Target: T2, mouse Ang-2
Experiment: SPR

Row | Kd [nM] | Binder
6 | 0.32 | B6
7 | 0.42 | B7

Target: T1, human Ang-2
Experiment: SPR
Remark: another data set of the same source

Row | Kd [nM] | Binder
8 | 8.2 | B6
9 | 3.1 | B7

Target: T2, mouse Ang-2
Experiment: competition ELISA vs Tie-2

Row | IC50 [nM] | Binder
10 | 7.7 | B6
11 | 0.3 | B2
12 | 11 | B7

Target: T3, cAng-2
Experiment: competition ELISA vs Tie-2

Row | IC50 [nM] | Binder
13 | 0.608 | B1
14 | 0.54 | B2
15 | 0.108 | B5

Target: T1, human Ang-2
Experiment: competition ELISA vs Tie-2

Row | IC50 [nM] | Binder
16 | 0.09 | B4

Target: T4, mouse Ang-1
Experiment: competition ELISA vs Tie-2

Row | IC50 [nM] | Binder
17 | > 1000 | B1
18 | 300 | B2
19 | > 1000 | B5

Target: T5, human Ang-1
Experiment: competition ELISA vs Tie-2

Row | IC50 [nM] | Binder
20 | > 1000 | B6
21 | > 1000 | B7

Target: T5, human Ang-1
Experiment: competition ELISA vs Tie-2
Remark: another data set of the same source

Row | IC50 [nM] | Binder
22 | > 1000 | B1
23 | 200 | B2
24 | > 1000 | B3
25 | 43 | B4
26 | > 1000 | B5

Target: T6, rat Ang-2 (rAng-2)
Experiment: competition ELISA vs Tie-2

Row | IC50 [nM] | Binder
27 | 0.204 | B1
28 | 0.236 | B2
29 | 0.06 | B3
30 | 0.22 | B4
31 | 0.035 | B5

Target: T1, human Ang-2
Experiment: competition ELISA vs Tie-2
Remark: another data set of the same source

Row | IC50 [nM] | Binder
32 | 0.17 | B1
33 | 0.05 | B3
34 | 0.03 | B5

Target: T2, mouse Ang-2
Experiment: competition ELISA vs Tie-2
Remark: another data set of the same source

Row | IC50 [nM] | Binder
35 | 0.249 | B1
36 | 0.289 | B2
37 | 0.06 | B3
38 | 0.16 | B4
39 | 0.063 | B5

Target: T1, human Ang-2
Experiment: competition ELISA vs Tie-2
Remark: another data set of the same source

Row | IC50 [nM] | Binder
40 | 0.179 | B1
41 | 0.197 | B2
42 | 0.06 | B3
43 | 0.08 | B4
44 | 0.046 | B5

Target: T1, human Ang-2
Experiment: competition ELISA vs Tie-2
Remark: another data set of the same source

Row | IC50 [nM] | Binder
45 | 21 | B6
46 | 0.2 | B2
47 | 6 | B7
